These results are taken from patent EP3470428A1 (Numab Innovation AG, dated 2019).

One may read the IC50 as the midpoint of a concentration-inhibition curve. Higher therefore signals weaker potency in that assay.

The target in assay [1] is T1, human CD137 expressed on cells (human, UniProt Q07011 24-255). Briefly: cell-based or functional assay.
In assay [2] the target is T1, human CD137 expressed on cells. Briefly: cell-based or functional assay. The source holds these as a separate data set.
The target in assay [3] is T2, biotinylated human PD-L1 (human, UniProt Q9NZQ7 19-238, limits assumed, biotinylated).
T2 construct: also called biotinylated PD-L1
Briefly: competition ELISA; coated human PD-1 as competitor; biotinylated human PD-L1 pre-incubated with inhibitor. (In general: In an ELISA, binding on a coated surface is turned into a signal by an enzyme label.)

For assay [4], the target named is T1, human CD137 expressed on cells. Briefly: cell-based or functional assay. The source holds these as a separate data set.
For assay [5] the target is unchanged. Briefly: cell-based or functional assay. This is another data set of the same source.
Assay [6] concerns the target T3, human PD-L1 expressed on cells (human, UniProt Q9NZQ7 19-290). Briefly: cell-based or functional assay.
Assay [7] deals with T1, human CD137 expressed on cells. Briefly: cell-based or functional assay. The source holds these as a separate data set.
Assay [8] deals with T2, biotinylated human PD-L1. Briefly: PD-L1/PD-1 competition ELISA with human serum albumin.
In assay [9] the target is T1, human CD137 expressed on cells. Briefly: cell-based or functional assay. The source holds these as a separate data set.
In assay [10] the target is T4, human serum albumin (human, UniProt P02768 25-609).
T4 construct: Amine-coupled to a CM5 chip; assay at pH 5.5; also called HSA; human SA
Briefly: SPR (Biacore T200); SA amine-coupled; pH 5.5.

The target of assay [11] is T3, human PD-L1 expressed on cells. Briefly: cell-based or functional assay. This is another data set of the same source.
Assay [12] deals with T2, biotinylated human PD-L1. Briefly: competition ELISA; coated human B7.1 as competitor; biotinylated PD-L1 pre-incubated with inhibitor.
Assay [13] concerns the target T1, human CD137 expressed on cells. Briefly: cell-based or functional assay. The source holds these as a separate data set.

B1: PRO1126: 38-02-A04 sc01 scDb-i/33_03_G02 sc03 Full scDb-o (bispecific antibody)
chain: DFQLTQSPSSLSASVGDRVTITCQASQSINDYLAWYQQKPGKSPKLLIYKASTLASGVPSRFSGSGSGTDFTLTISSLQPEDFATYYCQQGYIITDIDNVFGTGTKVTVLGGGGGSQVQLQESGPGLVKPSETLSLTCKVSGFSFSNSYWICWIRQPPGKGLEWIGCTFVGSSDSTYYANWAKGRVTISVDSSKNQFSLKLSSVTAADTAVYYCARHPSDAVYGYANNLWGQGTLVTVSSGGGGSGGGGSGGGGSGGGGSIQMTQSPSSLSASVGDRVTITCQASQSINNVLAWYQQKPGKAPKLLIYRASTLASGVPSRFSGSGSGTDFTLTISSLQPEDFATYYCQSSYGNYGDFGTGTKVTVLGGGGGSQSQLQESGPGLVKPSETLSLTCKASGFSFSSGYDMCWVRQPPGKGLEWIACVVAGSVDITYYASWAKGRVTISKDSSKNQVSLKLSSVTAADTAVYFCARKDAYSDAFNLWGQGTLVTVSS
notes: scDb, STR graft of the PD-L1 domain
With B1, the “EC50 in ng/ml, CD137 activation, NFkB-luciferase Jurkat reporter assay, HCC827 cells stimulated with IFNg” value in assay [1] came out at 5.48 ng/mL. Further, in assay [2], the “max. activation (%), NF-kB reporter gene, CHO-PD-L1; HSA: no” value is 242%; the “max. activation (%), NF-kB reporter gene, HCC827 +IFNg; HSA: no” value is 208%; the “max. activation (%), NF-kB reporter gene, HCC827 -IFNg; HSA: no” value amounted to 135%. Moreover, the IC50 in assay [3] was found to be 0.00128 µg/mL. Moreover, the “EC50 in ng/ml, CD137 activation, NFkB-luciferase Jurkat reporter assay, CHO-PD-L1 cells” value in [4] was 6 ng/mL. For the same molecule, in [5], the “EC50 in ng/ml, CD137 activation, NFkB-luciferase Jurkat reporter assay, HCC827 cells without IFNg” value was determined as 6.97 ng/mL. In addition, the “IC50, neutralization of PD-L1/PD-1 interaction, NFAT-luciferase reporter gene assay” value in assay [6] came to 0.0481 µg/mL.

B2: PRO1057: 38_02_A04 sc01 scDb-i/33-03-G02 sc01 scDb-o/mxr HSA (23-13-A01-sc03, sk17sh4) (other)
chain: DIQMTQSPSSLSASVGDRVTITCQASQSINDYLAWYQQKPGKAPKLLIYKASTLASGVPSRFSGSGSGTDFTLTISSLQPEDFATYYCQQGYIITDIDNVFGTGTKVTVLGGGGGSQVQLQESGPGLVKPSETLSLTCKVSGFSFSNSYWICWIRQPPGKGLEWIGCTFVGSSDSTYYANWAKGRVTISVDSSKNQFSLKLSSVTAADTAVYYCARHPSDAVYGYANNLWGQGTLVTVSSGGGGSGGGGSGGGGSGGGGSIQMTQSPSSLSASVGDRVTITCQASQSINNVLAWYQQKPGKAPKLLIYRASTLASGVPSRFSGSGSGTDFTLTISSLQPEDFATYYCQSSYGNYGDFGTGTKVTVLGGGGGSQVQLQESGPGLVKPSETLSLTCKVSGFSFSSGYDMCWIRQPPGKGLEWIGCVVAGSVDITYYASWAKGRVTISVDSSKNQFSLKLSSVTAADTAVYYCARKDAYSDAFNLWGQGTLVTVSSGGGGSGGGGSVVMTQSPSSLSASVGDRVTITCQASQIISSRSAWYQQKPGQPPKLLIYQASKLASGVPSRFSGSGSGTDFTLTISSLQPEDFATYYCQCTYIDSNFGAFGGGTKLTVLGGGGGSGGGGSGGGGSGGGGSEVQLVESGGGLVQPGGSLRLSCAASGFSFSSSYWICWVRQAPGKGLEWVGCVFTGDGTTYYASWAKGRFTISRDNSKNTVYLQMNSLRAEDTATYFCARPVSVYYYGMDLWGQGTLVTVSS
notes: Trispecific scTriabody (scDb-scFv)
Take B2: in [7], the “EC50 in ng/ml, CD137 activation, NFkB-luciferase Jurkat reporter assay, HCC827 with IFNy stimulation, 24h, +HSA” value came to 115 ng/mL and the “EC50 in ng/ml, CD137 activation, NFkB-luciferase Jurkat reporter assay, HCC827 without IFNy stimulation, 24h, +HSA” value was found to be 76.6 ng/mL. Also, in assay [8], the “fold change of IC50 in presence of human serum albumin” value was around 2 fold. Moreover, the “max. activation (%), NF-kB reporter gene, CHO-PD-L1; HSA: yes, 24h” value in [2] was found to be 663%. In [3], the IC50 turned out to be 0.00861 µg/mL. For the same molecule, in [9], the “EC50 in ng/ml, CD137 activation, NFkB-luciferase Jurkat reporter assay, PD-L1 expressing CHO cells, 6h, + HSA” value was determined as 112 ng/mL. Besides, in [10], the binding result was “binds”. The “IC50 (ng/ml), neutralization of PD-L1/PD-1 interaction, NFAT-luciferase reporter gene assay, with HSA” value in assay [11] came out at 665 ng/mL. In assay [12], the half-maximal inhibitory concentration (IC50) stood at 0.0163 µg/mL. Besides, the “EC50 in ng/ml, CD137 activation, NFkB-luciferase Jurkat reporter assay, PD-L1 expressing CHO cells, 24h, + HSA” value in assay [13] was 792 ng/mL.
